Tests used:
[1] = target: RelSt3 relaxase encoded by ICESt3 from Streptococcus thermophilus (Streptococcus thermophilus (ICESt3)); assay: AUC; sedimentation velocity at 1 and 5 uM in 20 mM Tris-HCl pH 7.5, 500 mM NaCl, 25 °C, 42,000 rpm, absorbance at 280 nm; c(s) analysis with Sedfit
[2] = target: RelSt3 relaxase encoded by ICESt3 from Streptococcus thermophilus (Streptococcus thermophilus (ICESt3)); assay: cross-linking; 5 ug RelSt3 in 20 uL with 0.001 to 0.1% glutaraldehyde, 15 min at room temperature, stopped with glycine; 10% SDS-PAGE, Coomassie
[3] = target: RelSt3 relaxase encoded by ICESt3 from Streptococcus thermophilus (Streptococcus thermophilus (ICESt3)); assay: SEC; calibrated Superdex 200 gel filtration, final step of purification; single elution peak at 72.4 mL, apparent molecular weight about 88 kDa against a predicted 48.5 kDa

Measured: stoichiometry N

RelSt3 relaxase encoded by ICESt3 from Streptococcus thermophilus (enzyme)
2: [1] | [2] | [3]

From paper PMC6499999
